In patent US20220073617A1 (published 2022) one finds Kd data, which are given here for one molecule.

Like-named read-outs stand apart in the source and are kept apart here.

In test [1] the target is T1, monovalent hVISTA-ECD (amino acids 32-193 of SEQ ID NO: 1 with a 7xHis tail) (UniProt Q9H7M9 33-193). Kind of test: SPR; pH 6.0. On the technique in general: In SPR one partner is held on a chip, and binding of the other changes the refractive index at the surface.
The target in test [2] is T1, monovalent hVISTA-ECD (amino acids …). Kind of test: SPR; pH 6.0. The source holds these as a separate data set.

T1 sequence (Q9H7M9 other isoform, or with tags, fused parts or gaps): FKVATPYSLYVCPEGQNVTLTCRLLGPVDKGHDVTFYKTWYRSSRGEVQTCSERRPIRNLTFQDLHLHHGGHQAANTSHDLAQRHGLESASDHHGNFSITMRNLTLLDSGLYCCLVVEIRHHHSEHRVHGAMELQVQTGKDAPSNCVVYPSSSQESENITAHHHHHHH

B1: P1-061029.IgG1.3 (antibody, V domains shown)
VH: EVQLVESGGGLVQPGKSLRLSCAASGFTLDDYAMHWVRQAPGKGLEWVSGINWNSANIGYADSVKGRFTISRDNAKNSLYLQMNSLRTEDTALYYCAKVPGYSGGWIDAFDVWGQGTMVTVSS
VL: not shown
In the case of B1, the Kd in test [1] and in test [2] was 4.5 nM throughout.
